In patent US20240150474A1 (Regeneron, published 2024):
Substitutions are numbered along the chain they refer to.

T1: dimeric human BMPR1B (human, UniProt O00238 14-126, limits assumed)
T1 construct: Construct and dimerising part not described; also called Human Receptor BMPR1B
T1 sequence (looked up): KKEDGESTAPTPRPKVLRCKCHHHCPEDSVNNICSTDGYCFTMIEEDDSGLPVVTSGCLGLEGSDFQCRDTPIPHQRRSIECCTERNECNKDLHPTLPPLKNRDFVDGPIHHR

T2: dimeric mouse ACVRL1 (mouse, UniProt Q61288 23-119, limits assumed)
T2 construct: Construct and dimerising part not described; also called Mouse Receptor ACVRL1
T2 sequence (looked up): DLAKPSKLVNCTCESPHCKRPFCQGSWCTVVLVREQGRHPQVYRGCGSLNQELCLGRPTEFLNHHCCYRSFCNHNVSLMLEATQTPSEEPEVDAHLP

T3: dimeric mouse BMPR1B (mouse, UniProt P36898 14-126, limits assumed)
T3 construct: Construct and dimerising part not described; also called Mouse Receptor BMPR1B
T3 sequence (looked up): T1 sequence (looked up) with V16I, L51M, N102D, R113K

B1: REGN 5168 (antibody, human IgG4 S228P, kappa, V domains shown)
VH: QVQLVQSGAEVKEPGASVKVSCKASGYTFAEYYMHWVRQAPGQGLEWMGAINPSGSHTSYAQKFQGRVTMTRDTSTSTVYMELSSLRSEDTAVYYCARSISGKRGGDYYGMDVWGQGTTVTVSS
VL: DIQMTQSPSTLSASVGDRVTITCRASQSISSWLAWYQQKPGKAPKLLIYKASSLESGVPSRFSGSGSGTEFTLTISSLQPDDFATYYCQQYSIFPFTFGGGTKVEIKR
notes: also called REGN 5168-L1
B2: REGN 5167 (antibody, human IgG4 S228P, kappa, V domains shown)
VH: QLQLQESGPGLVKPSETLSLTCTVSGGSITSSSYYWAWIRQPPGKGLEWIGKIYYSGSTHYNPSLKSRVTISVDTSKNQFSLKLSSVTAADTAVYYCARVGGHGYGDSAGLAFDIWGQGTMVTVSS
VL: EIVLTQSPGTLSLSPGERATLSCRASQSVSSAFLAWYQQKPGQAPRLLIYGASYRHTGIPDRFSGSGSGTDFTLTISRLEPEDFAVYYCQHYGVGPRTFGGGTKVEIKR
notes: also called REGN 5167-L1
B3: REGN 5166 (antibody, human IgG4 S228P, kappa, V domains shown)
VH: QVQLVESGGGVVQPGRSLRLSCAASGFTFSAYWMHWVRQAPGKGLEWVAVISYDGSNKYYADSVKGRFTISRDHSKNTLYLQMNSLRAEDTAVYYCAKGDAYDSWRILLGGDYYGMDVWGQGTTVTVSS
VL: EIVLTQSPGTLSLSPGERATLSCRASQSVSSSYLAWYQQKPGQAPRPLIYGASSRATGIPDRFSGSGSGTDFTLTISRLEPEDFAVYYCQQGGDAPPYTFGGGTKVEIKR
notes: also called REGN 5166-L1

Target: T1, dimeric human BMPR1B
Assay: SPR Biacore T200, mAb captured by anti-human Fab, dimeric receptor injected, 25C
Experimental: (§1) ACVR1 mAbs were tested for cross-reactivity to a panel of bone morphogenic protein type 1 receptors including human and mouse ACVR1, BMPR1A, and BMPR1B, as well as ACVRL1 on a Biacore T200 as follows. In order to measure the specificity of ACVR1 mAbs, ACVR1 mAbs were captured with anti-human Fab immobilized on a CM5 chip. 100 nM or 10 nM of dimeric human or mouse ACVR1, ACVRL1, BMPR1A or BMPR1B were injected at 30 μL/min for 2 min (duplicate injections) and the experiment was performed at 25° C. Binding of different receptors to the captured mAb was determined using Scrubber 2.0c software.

Binder	binding result
B1	no binding (tested: 100 nM)
B2	no binding (tested: 100 nM)
B3	no binding (tested: 100 nM)

Target: T4, dimeric human ACVRL1 (human, UniProt P37023 22-118, limits assumed)
T4 construct: Construct and dimerising part not described; also called Human Receptor ACVRL1
Assay: as above
Experimental: as §1

T4 sequence (P37023 22-118 limits assumed): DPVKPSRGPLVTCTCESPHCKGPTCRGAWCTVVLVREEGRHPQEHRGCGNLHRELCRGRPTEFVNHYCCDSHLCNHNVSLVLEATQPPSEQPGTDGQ

Binder	binding result
B1	no binding (tested: 100 nM)
B2	no binding (tested: 100 nM)
B3	no binding (tested: 100 nM)

Target: T2, dimeric mouse ACVRL1
Assay: as above
Experimental: as §1

Binder	binding result
B1	no binding (tested: 100 nM)
B2	no binding (tested: 100 nM)
B3	no binding (tested: 100 nM)

Target: T5, dimeric mouse BMPR1A (mouse, UniProt P36895 24-152, limits assumed)
T5 construct: Construct and dimerising part not described; also called Mouse Receptor BMPR1A
Assay: as above
Experimental: as §1

T5 sequence (P36895 24-152 limits assumed): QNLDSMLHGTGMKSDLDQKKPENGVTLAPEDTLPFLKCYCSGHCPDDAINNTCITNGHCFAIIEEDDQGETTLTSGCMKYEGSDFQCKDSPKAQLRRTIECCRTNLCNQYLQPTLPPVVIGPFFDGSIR

Binder	binding result
B1	no binding (tested: 100 nM)
B2	no binding (tested: 100 nM)
B3	no binding (tested: 100 nM)

Target: T6, dimeric human BMPR1A (human, UniProt P36894 24-152, limits assumed)
T6 construct: Construct and dimerising part not described; also called Human Receptor BMPR1A
Assay: as above
Experimental: as §1

T6 sequence (P36894 24-152 limits assumed): as the sequence (P36895 24-152 limits assumed) above, with L16S, P21S, T74A counted along it

Binder	binding result
B1	no binding (tested: 100 nM)
B2	no binding (tested: 100 nM)
B3	no binding (tested: 100 nM)

Target: T3, dimeric mouse BMPR1B
Assay: as above
Experimental: as §1

Binder	binding result
B1	no binding (tested: 100 nM)
B2	no binding (tested: 100 nM)
B3	no binding (tested: 100 nM)
